Where no end group is shown, it is not given here.
How the values were obtained:
[1] = biological target: T1, protein kinase A catalytic subunit (Mus musculus, UniProt P05132); assay: Change in fluorescence after incubation with excess protein kinase A; assay type: biochemical; conditions: one hour at 30° C., 488 nm excitation, 511 nm emission; for % Change in fluorescence upon phosphorylation: more drastically altered N-terminal sites, excess PKA catalytic subunit; for % Change in fluorescence: excess protein kinase A catalytic subunit
Method: (§1) Numbers prior to the sequence indicate amino acid position in wild type GFP (SEQ ID NO:2) where phosphorylation motif starts. The relative rates of phosphorylation compare the rate of phosphorylation of the given phosphorylation motif with the endogenous protein kinase A phosphorylation motif in Aequorea GFP (HKFSV, SEQ ID NO:1) measured by incorporation of ^32P after incubation of the purified substrate and protein kinase A catalytic subunit in the presence of ^32P-labeled ATP using 3 micrograms of GFP, 5 micrograms protein kinase A catalytic subunit, for 10 minutes at 30° C. in standard phosphorylation buffer (20 mM MOPS, pH 6.5, 100 mM KCl, 100 micromolar ATP, 3 mM MgC2, 1 mM DTT and 100 microCi ^32P-labeled ATP. Reactions were terminated by blotting onto phosphocellulose paper and washing with 10% phosphoric acid. The percent change in fluorescence represents the increase in fluorescence (475 nm excitation, 510 nm emission) observed in each purified protein resulting from incubation with excess protein kinase A catalytic subunit for one hour at 30° C. using the same phosphorylation conditions as described above except that no ^32P labeled ATP was present and that after the reaction time was complete, samples were analyzed in a fluoromiter rather than blotted onto phosphocellulose paper.
(§2) Numbers prior to the sequence indicate amino acid position in the wild type GFP where the phosphorylation motif starts. The relative rates of phosphorylation compare the rate of phosphorylation of the given phosphorylation motif with the endogenous protein kinase A phosphorylation motif in Aequorea GFP (HKFSV) measured by incorporation of ^32P after incubation of the purified substrate and protein kinase A catalytic subunit in the presence of ^32P-labeled ATP using the standard protocols described above. The percentage change in fluorescence represents the change in fluorescence (488 nm excitation, 511 nm emission) observed in each purified protein as a result of incubation with excess protein kinase A catalytic subunit for one hour at 30° C. using phosphorylation conditions described above. […] To improve the effect of phosphorylation on fluorescence, amino acids around the phosphorylation site were mutated to create an optimal phosphorylation sequence even if it disordered the existing local tertiary structure. Such disruption was predicted and found to decrease the basal fluorescence of these constructs in their non-phosphorylated state (Table VI).
Numbers prior to the sequence indicate amino acid position in wild type GFP where the phosphorylation site starts. Negative numbers indicate extensions onto the wild-type N-terminus. The percent change in fluorescence represents the change in fluorescence (488 nm excitation, 511 nm emission) observed in each purified protein resulting from incubation with excess protein kinase A catalytic subunit for one hour at 30° C. using standard phosphorylation conditions described earlier.

[2] = biological target: T1, protein kinase A catalytic subunit; assay: Relative rate of phosphorylation by protein kinase A, ^32P incorporation; assay type: biochemical; conditions: relative to endogenous PKA motif HKFSV; sites inserted at the N-terminus of S65T GFP
Method: as §1, §2

[3] = Fluorescent properties of mutants of Aequorea green fluorescent protein (Table I); assay type: physicochemical
[4] = tested on: activated recombinant MAP kinase; assay: Phosphorylation of GFP Erk sensors by MAP kinase, ^32P incorporation; assay type: biochemical; conditions: for ^32P-Incorporation (CPM): 10 μM substrate, 100 ng MAP kinase, 30 minutes at 30° C., mean ± standard deviation of triplicates
From the text: Experiments were terminated and samples processed as described previously in subsection D.4. Results presented in Table X represent means of triplicate determinations ±standard deviations of ^32P-incorporation in washed pellets as described earlier.

[5] = biological target: Erk-1 kinase (Homo sapiens, UniProt P27361); assay: Fluorescence change of Erk substrates after phosphorylation and acetate quench; assay type: biochemical; conditions: 2 μM GFP, 1 μg Erk-1 kinase, 1 hour at 30° C.; 3 hours in acetate quenching buffer pH 5.0
Method: These experiments were performed by incubating the GFP sample (2 μM) with Erk-1 kinase (1 μg) for 1 hour at 30° C. in assay buffer (20 mM MOPS, pH 7.2, 25 mM beta-glycerol phosphate, 5 mM EGTA, 1 mM DTT, 1 mM ATP, 20 mM MgCl2). Reactions were quenched by the addition of acetate quenching buffer (100 μL of 100 mM Acetate pH 5.0, 100 mM NaCl, 20 mM beta-Glycerol phosphate). Fluorescence changes were measured after 3 hours of incubation in acetate quenching buffer. Results represent the means of triplicate determinations.

Sequence of Erk-1 kinase (P27361 whole entry): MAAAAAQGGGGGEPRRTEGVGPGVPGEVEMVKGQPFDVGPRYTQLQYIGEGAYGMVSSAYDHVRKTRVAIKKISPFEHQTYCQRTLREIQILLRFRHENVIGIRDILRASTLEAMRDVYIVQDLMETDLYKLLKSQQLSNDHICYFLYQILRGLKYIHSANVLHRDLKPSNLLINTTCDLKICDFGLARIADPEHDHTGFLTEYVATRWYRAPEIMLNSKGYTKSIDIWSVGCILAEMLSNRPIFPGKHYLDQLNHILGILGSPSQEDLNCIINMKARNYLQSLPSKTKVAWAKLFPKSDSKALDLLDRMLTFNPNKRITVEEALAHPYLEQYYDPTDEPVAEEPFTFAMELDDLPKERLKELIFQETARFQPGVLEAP

Row | Relative rates of phosphorylation [2] | % Change in fluorescence [1] [%] | Compound | ^32P-Incorporation (CPM) [4] [CPM] | also measured
1 |  |  | 1IMRRRRSI1: S65T GFP with N-terminal phosphorylation site MRRRRSII (not fully specified (C-terminus); printed as 1IMRRRRSI1) |  | % Change in fluorescence upon phosphorylation [1]: 70%; % Change in fluorescence upon phosphorylation ([1]; listed as 1MRRRRSII): about 70%
2 | 3.7 | 17 | 1MRDSCLF: S65T GFP with N-terminal phosphorylation site MRDSCLF (not fully specified (C-terminus); printed as 1MRDSCLF) |  | 
3 | 5.1 | 5.7 | 1MRKGSCLF: S65T GFP with N-terminal phosphorylation site MRKGSCLF (not fully specified (C-terminus); printed as 1MRKGSCLF) |  | 
4 | 1.6 | 8.0 | 1MRKGSLLF: S65T GFP with N-terminal phosphorylation site MRKGSLLF (not fully specified (C-terminus); printed as 1MRKGSLLF) |  | 
5 | 3.0 | 6.0 | 1MRRESLLF: S65T GFP with N-terminal phosphorylation site MRRESLLF (not fully specified (C-terminus); printed as 1MRRESLLF) |  | 
6 | 5.5 | 5.1 | 1MSKRRDSL: GFP with N-terminal phosphorylation site MSKRRDSL; 7% of wild type fluorescence (not fully specified (C-terminus); printed as 1MSKRRDSL) |  | 
7 | 2.1 | 25 | 1MSRRDSCF: S65T GFP with N-terminal phosphorylation site MSRRDSCF (not fully specified (C-terminus); printed as 1MSRRDSCF) |  | 
8 |  |  | O=C(Nc1ccccc1-c1ccc(Cl)cc1)c1cccnc1Cl [Emerald] |  | Emission Max [3]: 508 nm; Excitation Max [3]: 487 nm
9 |  |  | Erk-1: GFP mutant K8 with Erk kinase motif Met Val Glu Pro Leu Thr Pro Ser Phe (MVEPLTPSF; not fully specified; printed as Met Val Glu Pro Leu Thr Pro Ser Phe) | 1579 ± 282 | 
10 |  |  | Erk-4: GFP mutant K8 with Erk kinase motif Met Thr Gly Pro Leu Ser Pro Gly Phe (MTGPLSPGF; not fully specified; printed as Met Thr Gly Pro Leu Ser Pro Gly Phe) | 1982 ± 260 | 
11 |  |  | Erk-5: GFP mutant K8 with Erk kinase motif Met Thr Gly Pro Leu Ser Pro Gly Tyr (MTGPLSPGY; not fully specified; printed as Met Thr Gly Pro Leu Ser Pro Gly Tyr) | 6455 ± 558 | 
12 |  |  | Erk-6: GFP mutant K8 with Erk kinase motif Met Thr Gly Pro Leu Ser Pro Gly Leu (MTGPLSPGL; not fully specified; printed as Met Thr Gly Pro Leu Ser Pro Gly Leu) | 22498 ± 381 | Fold Increase in Fluorescence after Phosphorylation [5]: 1.20 fold
13 |  |  | Erk-7: GFP mutant K8 with Erk kinase motif Met Thr Gly Pro Leu Ser Pro Gly Pro (MTGPLSPGP; not fully specified; printed as Met Thr Gly Pro Leu Ser Pro Gly Pro) | 25502 ± 2077 | Km ([4]; kinetic analysis): 15 µM; Fold Increase in Fluorescence after Phosphorylation [5]: 1.05 fold
14 |  |  | Wild type: wild-type Aequorea green fluorescent protein, SEQ ID NO:2 |  | Emission Max [3]: 508 nm; Excitation Max [3]: 395 nm; Extinction Coefficient [3]: 21,000 M − 1 cm − 1; Quantum Yield [3]: 0.77
15 |  |  | −1MRRRRSIII: S65T GFP with N-terminal phosphorylation site MRRRRSIII, N-terminus extended by one (not fully specified (C-terminus); printed as −1MRRRRSIII) |  | % Change in fluorescence upon phosphorylation [1]: 43%; % Change in fluorescence upon phosphorylation ([1]; listed as MRRRRSIII): about 70%
16 |  |  | −2MRRRRSIIIF: S65T GFP with N-terminal phosphorylation site MRRRRSIIIF, N-terminus extended by two (not fully specified (C-terminus); printed as −2MRRRRSIIIF) |  | % Change in fluorescence upon phosphorylation [1]: 15%
